Experiments:
[1] = biological target: T1, PTPN4-PDZ (residues G499-N604) (human), P29074; experiment: NMR titration (rounded value in the text)
T1 chain: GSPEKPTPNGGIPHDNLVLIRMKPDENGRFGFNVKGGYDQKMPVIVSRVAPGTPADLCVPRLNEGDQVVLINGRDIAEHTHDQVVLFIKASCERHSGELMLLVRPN

[2] = biological target: T1, PTPN4-PDZ (residues G499-N604) (human), …; experiment: NMR titration, 15N-labeled PTPN4-PDZ with unlabeled peptide

SWESHKSGGETRL (modifications not checked) [Cyto13-att]
Kd [1]: 160 µM | Kd [2]: 157 µM
